Target: T1, full length Itk (Mus musculus, UniProt Q03526)
T1 construct: made in house; host or cells: Sf9 insect cells (baculovirus), co-infected 1:1 with Lck baculovirus
T1 sequence (Q03526 1-625): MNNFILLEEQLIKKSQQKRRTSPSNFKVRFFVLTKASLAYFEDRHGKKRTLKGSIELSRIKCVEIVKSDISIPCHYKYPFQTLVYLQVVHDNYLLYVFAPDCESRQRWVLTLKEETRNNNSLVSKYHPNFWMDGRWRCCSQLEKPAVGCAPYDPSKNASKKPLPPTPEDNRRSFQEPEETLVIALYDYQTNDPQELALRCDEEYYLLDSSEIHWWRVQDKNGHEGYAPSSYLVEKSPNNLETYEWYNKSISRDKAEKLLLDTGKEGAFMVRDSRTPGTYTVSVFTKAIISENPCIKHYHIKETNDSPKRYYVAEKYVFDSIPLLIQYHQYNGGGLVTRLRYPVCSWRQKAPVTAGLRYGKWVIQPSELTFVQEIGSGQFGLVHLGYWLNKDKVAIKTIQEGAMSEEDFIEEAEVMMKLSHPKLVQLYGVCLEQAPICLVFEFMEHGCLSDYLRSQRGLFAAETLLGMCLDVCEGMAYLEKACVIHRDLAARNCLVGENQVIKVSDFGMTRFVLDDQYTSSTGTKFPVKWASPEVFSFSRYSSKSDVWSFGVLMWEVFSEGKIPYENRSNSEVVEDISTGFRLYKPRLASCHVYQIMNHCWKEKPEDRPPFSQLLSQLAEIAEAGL
Experiment: In vitro Itk kinase assay using Peptide B as the substrate (initial velocities)
Type: biochemical
Conditions: full length Itk
Description: Substrate used in each experiment is indicated above each set of blots. 4(a) (left) Itk 32 substrate was incubated with Itk full-length enzyme as before (lane 1), or with Itk 32 domain:free Itk SH2 domain in ratios of 1:10, 1:25 or 1:50 (lanes 2-4, respectively) or equivalent ratios of PI3K N-terminal SH2 domain (lanes 5-7) and subjected to an in vitro kinase assay. […] Coomassie stain and an anti-FLAG blot (bottom panels) show protein levels. (right) The PLCγ1 SH2 domain competes with the PLCγ1 substrate in a similar manner. Lane 1 contains only Itk enzyme and PLCγ1 SH2C-Y783-substrate without additional free SH2 domain. Ratios of free SH2 domain to substrate are 1:5, 1:10 or 1:50 in lanes 2-4, respectively and equivalent ratios of PI3K SH2 domain are used in lanes 5-7. Coomassie stain of the gel and an anti-Itk blot (bottom panels) show protein levels. 4(b) Same experiment as shown in (a) using the Grb2 SH2 domain as a control. (left) Itk 32 substrate was incubated with Itk full-length enzyme (lane 1), or with Itk 32 domain:free Itk SH2 domain in ratios of 1:10 and 1:25 (lanes 2 & 3) or equivalent ratios of Grb2 SH2 domain (lanes 4 & 5) and subjected to an in vitro kinase assay. […]
The ratio of CypA to Itk varied between o and 100 times excess CypA. […] No change in Peptide B phosphorylation is detected. […]

B1: Itk SH2 domain: isolated exogenous SH2 domain of Itk, purified from bacteria (protein)
chain: EWYNKSISRDKAEKLLLDTGKEGAFMVRDSRTPGTYTVSVFTKAIISENPCIKHYHIKETNDSPKRYYVAEKYVFDSIPLLIQYHQYNGGGLVTRLRYPVCSWRQKA
**Q.** How did the “levels of peptide B phosphorylation (initial velocity) with increasing concentrations of SH2 domain” value turn out when B1 was run?
**A.** The value was “do not change significantly”.
